The values that follow come from PMC3334289 (Fems Microbiology Letters, 2012).

The data set deals with the molecule itself. Briefly: sedimentation of polymers.

B1: His6-tagged MreB (MreB-HIS) (natural protein, E. coli, UniProt P0A9X4 1-347, looked up)
chain: MLKKFRGMFSNDLSIDLGTANTLIYVKGQGIVLNEPSVVAIRQDRAGSPKSVAAVGHDAKQMLGRTPGNIAAIRPMKDGVIADFFVTEKMLQHFIKQVHSNSFMRPSPRVLVCVPVGATQVERRAIRESAQGAGAREVFLIEEPMAAAIGAGLPVSEATGSMVVDIGGGTTEVAVISLNGVVYSSSVRIGGDRFDEAIINYVRRNYGSLIGEATAERIKHEIGSAYPGDEVREIEVRGRNLAEGVPRGFTLNSNEILEALQEPLTGIVSAVMVALEQCPPELASDISERGMVLTGGGALLRNLDRLLMEETGIPVVVAEDPLTCVARGGGKALEMIDMHGGDLFSEE
For the protein B1, the binding result is reported as “binds”.
